Measured values taken from patent publication US20090075297A1 (SCHERING, published 2009).
No end group written: not given here.

Columns and labels:
rat GalR3 receptor [1] = molecular target: T1, rat GalR3 receptor (rat, UniProt O88626 1-370); experiment: competition with 0.3 nM 125I-porcine galanin on membranes of COS-7 cells transfected with rat GalR3; filtration; Cheng-Prusoff
T1 construct: Full-length receptor (370 amino acids) expressed from pCR3.1 in COS-7 cells; The assay used membrane preparations of the transfected cells; also called rat type 3 galanin receptor; cellular receptors
T1 chain: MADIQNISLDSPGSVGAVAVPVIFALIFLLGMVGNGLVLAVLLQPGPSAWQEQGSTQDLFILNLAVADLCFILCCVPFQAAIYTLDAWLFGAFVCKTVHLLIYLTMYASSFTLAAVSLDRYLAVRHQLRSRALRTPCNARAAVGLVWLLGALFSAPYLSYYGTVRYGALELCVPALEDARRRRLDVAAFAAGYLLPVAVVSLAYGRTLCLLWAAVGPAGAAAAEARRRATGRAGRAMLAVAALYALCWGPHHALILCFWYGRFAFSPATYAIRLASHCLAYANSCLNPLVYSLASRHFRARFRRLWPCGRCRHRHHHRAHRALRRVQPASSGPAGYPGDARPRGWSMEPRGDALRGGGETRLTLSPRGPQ
Protocol: (§1) Binding of ¹²⁵I-porcine-galanin to the membrane preparations was performed in a buffer containing 25 mM Tris-Cl (pH7.4), 1% bovine serum albumin (w/v), 0.1% bacitracin, 2 μg/ml leupeptin and 10 mM MgCl₂. Ligand saturation plots were performed using 20 μg amounts of the membrane protein in a total volume of 200 μl using 3 μM cold galanin to determine nonspecific binding. Peptide competition studies were performed in a total volume of 200 μl, containing 20 μg of membrane protein and 0.3 nM ¹²⁵I-porcine galanin. Incubations were carried out at room temperature for 1 hour and were terminated by rapid vacuum filtration through MULTISCREEN FB (glass fiber B) Filter Plates (Millipore, Bedford, Mass.) which had been pre-treated with 0.30% polyethylenimine to prevent non-specific binding of the radioligand to the filter. The filters were then washed three times with 100 μl of PBS (pH7.4). All data were analyzed using non-linear regression software (Prism, GraphPad, San Diego, Calif.), and the Ki was calculated using the method of Cheng and Prusoff [Biochem. Pharmacol. 22:3099-3108 (1973)].
The curves shown indicate the fits of the data points by nonlinear regression for one-site binding.

rat GalR3 receptor [2] = molecular target: T1, rat GalR3 receptor; experiment: radioligand binding to membranes of COS-7 cells transfected with rat GalR3
Protocol: as §1

B1: rat galanin(2-29) (peptide, UniProt P10683 34-61, looked up)
peptide: WTLNSAGYLLGPHAIDNHRSFSDKHGLT
notes: range 2-29; also called Rat galanin 92-29
Rat GalR3 receptor [1]
  Ki: 14 nM

## LLGPHAIDNHR [galanin(10-20)]
Rat GalR3 receptor [1]
  Ki: > 1000 nM

## GWTLNSAGYLLGPHAIDNHRSFSDKHGLT (ligand, UniProt P10683 33-61, looked up, also called galanin itself) [rat galanin]
Rat GalR3 receptor [1]
  Ki: 1.2 nM

B2: 125I-porcine galanin (ligand, UniProt P07480 33-61, looked up)
peptide: GWTLNSAGYLLGPHAIDNHRSFHDKYGLA
modifications: ends and bridges not checked; also: 125I radiolabel, residue not given here
notes: Bought radioligand; also called labeled galanin
Rat GalR3 receptor [2]
  binding result: binds

## TLNSAGYLLGPHAIDNHRSFSDKHGLT (peptide, UniProt P10683 35-61, looked up, range 3-29) [rat galanin(3-29)]
Rat GalR3 receptor [1]
  Ki: > 1000 nM
